Experimental data from article PMC9482650, “Quantitative fragmentomics allow affinity mapping of interactomes” (Nature Communications, 2022).

Tests used:
Test in all cases: holdup assay
Set-up in all cases: key: below the threshold = too weak to quantify, mostly under pKd 3.1 to 4
AHNAK1, Q09666 = molecular target: AHNAK1, Q09666
Inadl_1, Q8NI35 = molecular target: Inadl_1, Q8NI35
SNTG1, Q9NSN8 = molecular target: T1, SNTG1, Q9NSN8
T1 sequence (Q9NSN8 52-150, limits assumed, looked up): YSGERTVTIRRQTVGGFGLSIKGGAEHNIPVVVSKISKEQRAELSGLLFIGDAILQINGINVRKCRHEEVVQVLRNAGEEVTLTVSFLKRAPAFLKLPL

GRIP1_5, Q9Y3R0 = molecular target: T2, GRIP1_5, Q9Y3R0
T2 sequence (Q9Y3R0 568-668, limits assumed, looked up): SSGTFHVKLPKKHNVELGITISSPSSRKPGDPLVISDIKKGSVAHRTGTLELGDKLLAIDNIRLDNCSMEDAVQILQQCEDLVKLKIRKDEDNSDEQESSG

PICK1, Q9NRD5 = molecular target: PICK1, Q9NRD5
HTRA3, P83110 = molecular target: T3, HTRA3, P83110
T3 sequence (P83110 354-453, limits assumed, looked up): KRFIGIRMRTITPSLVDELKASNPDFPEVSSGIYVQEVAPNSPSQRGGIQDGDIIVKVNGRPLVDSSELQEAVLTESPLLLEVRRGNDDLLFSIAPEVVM

GRID2IP_1, A4D2P6 = molecular target: GRID2IP_1, A4D2P6
MPDZ_5, O75970 = molecular target: T4, MPDZ_5, O75970
T4 sequence (O75970 695-796, limits assumed, looked up): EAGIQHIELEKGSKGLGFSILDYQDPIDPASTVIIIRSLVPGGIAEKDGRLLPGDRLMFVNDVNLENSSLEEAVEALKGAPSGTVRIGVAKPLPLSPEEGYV

LRRC7, Q96NW7 = molecular target: T5, LRRC7, Q96NW7
T5 sequence (Q96NW7 1440-1537, limits assumed, looked up): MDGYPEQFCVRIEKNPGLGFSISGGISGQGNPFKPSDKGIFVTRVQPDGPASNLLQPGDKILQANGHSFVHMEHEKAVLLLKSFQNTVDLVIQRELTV

GRASP, Q7Z6J2 = molecular target: GRASP, Q7Z6J2
Inadl_9, Q8NI35 = molecular target: Inadl_9, Q8NI35
LIN7B, Q9HAP6 = molecular target: T6, LIN7B, Q9HAP6
T6 sequence (Q9HAP6 88-185, limits assumed, looked up): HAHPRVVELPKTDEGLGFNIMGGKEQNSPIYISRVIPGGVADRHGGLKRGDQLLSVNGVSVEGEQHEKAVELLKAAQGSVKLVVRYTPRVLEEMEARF

ARHGAP21, Q5T5U3 = molecular target: T7, ARHGAP21, Q5T5U3
T7 sequence (Q5T5U3 45-169, limits assumed, looked up): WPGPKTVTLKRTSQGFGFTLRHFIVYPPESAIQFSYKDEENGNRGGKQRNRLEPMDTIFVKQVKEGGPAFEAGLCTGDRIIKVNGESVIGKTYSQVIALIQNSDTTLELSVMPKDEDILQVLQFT

MAGI2_6, Q86UL8 = molecular target: MAGI2_6, Q86UL8
LNX2_3, Q8N448 = molecular target: T8, LNX2_3, Q8N448
T8 sequence (Q8N448 463-564, limits assumed, looked up): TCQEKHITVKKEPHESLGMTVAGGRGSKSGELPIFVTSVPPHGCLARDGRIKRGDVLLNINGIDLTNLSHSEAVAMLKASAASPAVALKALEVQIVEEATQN

MAGI1_1, Q96QZ7 = molecular target: MAGI1_1, Q96QZ7
SNTB1, Q13884 = molecular target: T9, SNTB1, Q13884
T9 sequence (Q13884 107-205, limits assumed, looked up): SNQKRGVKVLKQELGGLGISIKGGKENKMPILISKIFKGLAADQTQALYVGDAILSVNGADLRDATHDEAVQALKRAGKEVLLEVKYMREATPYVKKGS

CARD11, Q9BXL7 = molecular target: T10, CARD11, Q9BXL7
T10 sequence (Q9BXL7 662-765, limits assumed, looked up): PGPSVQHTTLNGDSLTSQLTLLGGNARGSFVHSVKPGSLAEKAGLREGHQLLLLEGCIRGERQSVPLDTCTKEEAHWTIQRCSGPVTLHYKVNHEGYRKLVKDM

IL16_4, Q14005 = molecular target: IL16_4, Q14005
LIN7A, O14910 = molecular target: T11, LIN7A, O14910
T11 sequence (O14910 103-200, limits assumed, looked up): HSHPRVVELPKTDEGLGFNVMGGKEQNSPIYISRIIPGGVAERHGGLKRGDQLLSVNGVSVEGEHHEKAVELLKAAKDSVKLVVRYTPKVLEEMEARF

TIAM2, Q8IVF5 = molecular target: T12, TIAM2, Q8IVF5
T12 sequence (Q8IVF5 885-986, limits assumed, looked up): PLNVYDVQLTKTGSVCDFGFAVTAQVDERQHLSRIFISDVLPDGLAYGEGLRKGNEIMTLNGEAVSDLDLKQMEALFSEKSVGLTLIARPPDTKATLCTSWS

TJP2_1, Q9UDY2 = molecular target: TJP2_1, Q9UDY2
NHERF3_4, Q5T2W1 = molecular target: T13, NHERF3_4, Q5T2W1
T13 sequence (Q5T2W1 373-468, limits assumed, looked up): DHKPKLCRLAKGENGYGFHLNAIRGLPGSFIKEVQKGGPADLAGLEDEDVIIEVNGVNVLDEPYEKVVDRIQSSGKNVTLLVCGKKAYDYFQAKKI

PDZRN4_1, Q6ZMN7 = molecular target: PDZRN4_1, Q6ZMN7
[1] = plain residues with an end cap or a label only (N-terminal biotin on a linker: ttds)
[2] = plain residues with an end cap or a label only (N-terminal biotin on a linker: ado-ado)

AHNAK1, Q09666, sequence (Q09666 4-100): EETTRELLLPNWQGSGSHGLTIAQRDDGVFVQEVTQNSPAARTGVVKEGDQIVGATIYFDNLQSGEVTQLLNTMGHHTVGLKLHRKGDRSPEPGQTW
GRID2IP_1, A4D2P6, sequence (A4D2P6 1-87): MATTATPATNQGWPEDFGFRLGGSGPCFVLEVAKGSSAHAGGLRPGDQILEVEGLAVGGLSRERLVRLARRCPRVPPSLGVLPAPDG
PDZRN4_1, Q6ZMN7, sequence (Q6ZMN7 213-318): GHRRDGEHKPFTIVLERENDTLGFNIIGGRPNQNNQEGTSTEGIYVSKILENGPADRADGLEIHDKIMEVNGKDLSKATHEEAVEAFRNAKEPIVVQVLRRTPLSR
Inadl_1, Q8NI35, sequence (Q8NI35 113-229): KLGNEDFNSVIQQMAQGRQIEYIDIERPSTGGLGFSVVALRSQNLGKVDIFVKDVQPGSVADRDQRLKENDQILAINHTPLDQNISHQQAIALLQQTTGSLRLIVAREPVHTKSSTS
GRASP, Q7Z6J2, sequence (Q7Z6J2 96-193): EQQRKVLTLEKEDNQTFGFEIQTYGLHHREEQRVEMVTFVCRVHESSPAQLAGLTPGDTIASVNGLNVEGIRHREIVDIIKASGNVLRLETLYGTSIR
IL16_4, Q14005, sequence (Q14005 1229-1329): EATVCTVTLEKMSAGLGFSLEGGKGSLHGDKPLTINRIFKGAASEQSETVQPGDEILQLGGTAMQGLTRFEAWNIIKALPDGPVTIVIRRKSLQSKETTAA
MAGI2_6, Q86UL8, sequence (Q86UL8 1141-1229): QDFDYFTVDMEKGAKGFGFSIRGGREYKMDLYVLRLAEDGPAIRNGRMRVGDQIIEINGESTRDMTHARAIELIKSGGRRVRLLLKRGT
MAGI1_1, Q96QZ7, sequence (Q96QZ7 1-106): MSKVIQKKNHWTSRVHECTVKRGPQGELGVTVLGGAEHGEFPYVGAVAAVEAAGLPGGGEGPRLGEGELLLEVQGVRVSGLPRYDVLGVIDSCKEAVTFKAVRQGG
TJP2_1, Q9UDY2, sequence (Q9UDY2 24-128): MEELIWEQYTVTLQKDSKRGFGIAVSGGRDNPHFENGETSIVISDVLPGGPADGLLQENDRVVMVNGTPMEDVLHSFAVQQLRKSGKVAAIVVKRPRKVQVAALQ
PICK1, Q9NRD5, sequence (Q9NRD5 17-115): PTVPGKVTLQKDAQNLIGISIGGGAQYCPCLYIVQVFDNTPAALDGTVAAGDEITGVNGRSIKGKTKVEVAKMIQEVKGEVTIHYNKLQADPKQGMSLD
Inadl_9, Q8NI35, sequence (Q8NI35 1530-1615): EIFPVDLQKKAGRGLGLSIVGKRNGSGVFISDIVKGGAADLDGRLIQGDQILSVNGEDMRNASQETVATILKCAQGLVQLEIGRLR

CNTVTVETVV [MAS1, P04201]
pKd (AHNAK1, Q09666; [1]): below the threshold | pKd (Inadl_1, Q8NI35; [1]): below the threshold | pKd (SNTG1, Q9NSN8; [1]): 3.86 | pKd (GRIP1_5, Q9Y3R0; [1]): 3.55 | pKd (PICK1, Q9NRD5; [1]): below the threshold | pKd (HTRA3, P83110; [1]): below the threshold | pKd (GRID2IP_1, A4D2P6; [1]): below the threshold | pKd (MPDZ_5, O75970; [1]): 3.53 | pKd (LRRC7, Q96NW7; [1]): below the threshold | pKd (GRASP, Q7Z6J2; [1]): below the threshold | pKd (Inadl_9, Q8NI35; [1]): below the threshold | pKd (LIN7B, Q9HAP6; [1]): below the threshold | pKd (ARHGAP21, Q5T5U3; [1]): below the threshold | pKd (MAGI2_6, Q86UL8; [1]): below the threshold | pKd (LNX2_3, Q8N448; [1]): below the threshold | pKd (MAGI1_1, Q96QZ7; [1]): below the threshold | pKd (SNTB1, Q13884; [1]): 4.29 | pKd (CARD11, Q9BXL7; [1]): below the threshold | pKd (IL16_4, Q14005; [1]): 3.6 | pKd (LIN7A, O14910; [1]): below the threshold | pKd (TIAM2, Q8IVF5; [1]): below the threshold | pKd (TJP2_1, Q9UDY2; [1]): below the threshold | pKd (NHERF3_4, Q5T2W1; [1]): 3.54 | pKd (PDZRN4_1, Q6ZMN7; [1]): below the threshold

LDSQIQETSI [MAP4, P27816]
pKd (AHNAK1, Q09666; [1]): below the threshold | pKd (Inadl_1, Q8NI35; [1]): below the threshold | pKd (SNTG1, Q9NSN8; [1]): 5.31 | pKd (GRIP1_5, Q9Y3R0; [1]): below the threshold | pKd (PICK1, Q9NRD5; [1]): below the threshold | pKd (HTRA3, P83110; [1]): below the threshold | pKd (GRID2IP_1, A4D2P6; [1]): below the threshold | pKd (MPDZ_5, O75970; [1]): below the threshold | pKd (LRRC7, Q96NW7; [1]): below the threshold | pKd (GRASP, Q7Z6J2; [1]): below the threshold | pKd (Inadl_9, Q8NI35; [1]): below the threshold | pKd (LIN7B, Q9HAP6; [1]): below the threshold | pKd (ARHGAP21, Q5T5U3; [1]): below the threshold | pKd (MAGI2_6, Q86UL8; [1]): 4.05 | pKd (LNX2_3, Q8N448; [1]): below the threshold | pKd (MAGI1_1, Q96QZ7; [1]): below the threshold | pKd (SNTB1, Q13884; [1]): 4.93 | pKd (CARD11, Q9BXL7; [1]): below the threshold | pKd (IL16_4, Q14005; [1]): below the threshold | pKd (LIN7A, O14910; [1]): below the threshold | pKd (TIAM2, Q8IVF5; [1]): below the threshold | pKd (TJP2_1, Q9UDY2; [1]): below the threshold | pKd (NHERF3_4, Q5T2W1; [1]): below the threshold | pKd (PDZRN4_1, Q6ZMN7; [1]): 4.84

EDLTKNHDEL [RCN1, Q15293]
pKd (AHNAK1, Q09666; [2]): below the threshold | pKd (Inadl_1, Q8NI35; [2]): below the threshold | pKd (SNTG1, Q9NSN8; [2]): 3.64 | pKd (GRIP1_5, Q9Y3R0; [2]): 3.52 | pKd (PICK1, Q9NRD5; [2]): below the threshold | pKd (HTRA3, P83110; [2]): below the threshold | pKd (GRID2IP_1, A4D2P6; [2]): below the threshold | pKd (MPDZ_5, O75970; [2]): below the threshold | pKd (LRRC7, Q96NW7; [2]): below the threshold | pKd (GRASP, Q7Z6J2; [2]): 3.86 | pKd (Inadl_9, Q8NI35; [2]): below the threshold | pKd (LIN7B, Q9HAP6; [2]): below the threshold | pKd (ARHGAP21, Q5T5U3; [2]): 4.17 | pKd (MAGI2_6, Q86UL8; [2]): 3.54 | pKd (LNX2_3, Q8N448; [2]): 3.51 | pKd (MAGI1_1, Q96QZ7; [2]): 3.62 | pKd (SNTB1, Q13884; [2]): below the threshold | pKd (CARD11, Q9BXL7; [2]): below the threshold | pKd (IL16_4, Q14005; [2]): below the threshold | pKd (LIN7A, O14910; [2]): below the threshold | pKd (TIAM2, Q8IVF5; [2]): below the threshold | pKd (TJP2_1, Q9UDY2; [2]): below the threshold | pKd (NHERF3_4, Q5T2W1; [2]): below the threshold | pKd (PDZRN4_1, Q6ZMN7; [2]): 3.73
